The target of assay [1] is T1, rat DPEP3 ECD with histidine tag (rat, UniProt Q5U2X4 36-459, limits assumed).
T1 construct: also called rDPEP3-His; ratDPEP3-His; not shown: histidine tag
T1 sequence: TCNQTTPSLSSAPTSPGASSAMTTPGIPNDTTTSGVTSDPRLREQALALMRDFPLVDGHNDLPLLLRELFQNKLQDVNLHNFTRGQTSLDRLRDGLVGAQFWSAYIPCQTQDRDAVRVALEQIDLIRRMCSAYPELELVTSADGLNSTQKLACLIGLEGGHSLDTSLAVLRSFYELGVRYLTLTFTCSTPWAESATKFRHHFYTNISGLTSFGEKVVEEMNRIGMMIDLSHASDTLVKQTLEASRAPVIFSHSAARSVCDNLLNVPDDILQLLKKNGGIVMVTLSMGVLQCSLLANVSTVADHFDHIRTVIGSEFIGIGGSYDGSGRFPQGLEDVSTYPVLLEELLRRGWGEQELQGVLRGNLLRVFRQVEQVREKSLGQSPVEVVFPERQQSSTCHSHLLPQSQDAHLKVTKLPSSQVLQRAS
Kind of assay: SPR, BIAcore 2000, antibody captured with anti-human capture kit.

In assay [2] the target is T2, hDPEP1-His (human, UniProt P16444 17-385, limits assumed).
T2 construct: Neither the origin nor the limits of this protein are described; not shown: histidine tag
T2 sequence (looked up): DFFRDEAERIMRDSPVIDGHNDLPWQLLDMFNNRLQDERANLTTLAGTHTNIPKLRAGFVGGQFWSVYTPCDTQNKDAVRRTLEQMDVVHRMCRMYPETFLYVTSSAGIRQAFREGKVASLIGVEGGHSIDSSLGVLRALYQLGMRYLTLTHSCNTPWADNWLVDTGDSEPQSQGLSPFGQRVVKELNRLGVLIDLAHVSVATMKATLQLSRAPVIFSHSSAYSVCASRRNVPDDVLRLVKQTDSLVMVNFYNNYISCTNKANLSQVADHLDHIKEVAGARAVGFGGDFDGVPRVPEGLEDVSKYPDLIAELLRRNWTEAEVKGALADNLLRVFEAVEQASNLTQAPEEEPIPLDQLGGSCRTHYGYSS
Described as above.

For assay [3], the target named is T3, hDPEP2 ECD with histidine tag (human, UniProt Q9H4A9 33-463).
T3 construct: also called hDPEP2-His; not shown: histidine tag
T3 sequence (Q9H4A9 33-463): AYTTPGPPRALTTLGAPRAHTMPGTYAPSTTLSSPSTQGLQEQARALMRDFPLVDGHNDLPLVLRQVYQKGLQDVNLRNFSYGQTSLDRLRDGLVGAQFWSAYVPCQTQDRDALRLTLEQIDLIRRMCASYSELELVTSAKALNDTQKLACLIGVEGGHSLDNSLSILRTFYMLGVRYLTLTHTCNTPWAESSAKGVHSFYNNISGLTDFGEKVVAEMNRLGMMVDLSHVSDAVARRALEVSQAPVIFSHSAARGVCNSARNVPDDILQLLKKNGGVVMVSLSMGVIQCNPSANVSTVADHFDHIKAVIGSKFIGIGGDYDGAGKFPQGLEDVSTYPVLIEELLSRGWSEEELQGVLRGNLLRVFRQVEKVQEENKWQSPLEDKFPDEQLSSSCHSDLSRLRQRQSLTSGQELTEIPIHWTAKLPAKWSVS
The description is as above.

Assay [4] has as its target T3, hDPEP2 ECD with histidine tag. The assay can be described thus: ELISA, coated antigen, antibody 1 ug/mL. On the procedure:
The anti-DPEP3 antibodies were screened by ELISA for cross-reactivity with mouse, rat and cynomolgus DPEP3 and for cross reactivity to hDPEP2, the closest DPEP3 family member. ELISA was conducted as follows. Plates were coated with purified mouse, rat or cynomolgus DPEP3-His or hDPEP2-His at 0.3 μg/mL in 0.2 M carbonate-bicarbonate buffer, pH 9.4 overnight at 4° C. The protein solution was removed and the wells were blocked with 1% (w/v) BSA in PBS (PBSA), 100 μL/well for 1 hour at 37° C. Anti-DPEP3 antibody or a mouse isotype control antibody was then added at 1 μg/mL in 50 μL PBSA for 1 hour at room temperature. After washing with water, 50 μL/well HRP-labeled goat anti-mouse IgG antibody diluted 1:10,000 in PBSA was added for 30 min at room temperature. The plates were washed and developed by the addition of 40 μL/well of the TMB substrate solution (Thermo Scientific) at room temperature. An equal volume of 0.2 M H₂SO₄ was added to stop substrate development. The samples were then analyzed by spectrophotometer at OD 450. […] The cross reactivity results for exemplary DPEP3-specific antibodies can be seen in FIG. 4.

Assay [5] deals with T4, hDPEP3-ECD-His (human, UniProt Q9H4B8 36-463).
T4 construct: also called hDPEP3-His; monomeric hDPEP3-His antigen; not shown: histidine tag
T4 sequence: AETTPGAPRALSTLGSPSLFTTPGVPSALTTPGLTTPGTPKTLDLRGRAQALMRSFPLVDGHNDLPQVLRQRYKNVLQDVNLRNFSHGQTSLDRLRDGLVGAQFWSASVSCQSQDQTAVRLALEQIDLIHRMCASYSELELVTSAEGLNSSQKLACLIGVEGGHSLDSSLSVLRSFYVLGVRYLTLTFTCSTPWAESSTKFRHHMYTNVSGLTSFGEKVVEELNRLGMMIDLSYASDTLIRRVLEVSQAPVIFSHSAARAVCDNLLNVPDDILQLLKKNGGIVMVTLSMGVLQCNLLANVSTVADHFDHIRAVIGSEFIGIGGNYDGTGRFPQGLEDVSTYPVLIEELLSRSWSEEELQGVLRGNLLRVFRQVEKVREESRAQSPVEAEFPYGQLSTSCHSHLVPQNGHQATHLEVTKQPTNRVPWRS
The assay can be described thus: BLI ForteBio RED, 200 nM hDPEP3-His, estimated grade. Summed up:
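Antibodies were captured on anti-mouse Fc biosensors to 0.3-1 units, then exposed to hDPEP3-His for a 4 min association and a 3 min dissociation at 1000 rpm. A control mouse IgG response was subtracted, and KD was estimated qualitatively from the curves. Sensors were regenerated with 10 mM glycine, pH 1.7.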

Assay [6] concerns the target T5, mDPEP3 (limits assumed).
T5 construct: also called mouse DPEP3-His; mouse DPEP3 ECD with histidine tag
T5 single chain: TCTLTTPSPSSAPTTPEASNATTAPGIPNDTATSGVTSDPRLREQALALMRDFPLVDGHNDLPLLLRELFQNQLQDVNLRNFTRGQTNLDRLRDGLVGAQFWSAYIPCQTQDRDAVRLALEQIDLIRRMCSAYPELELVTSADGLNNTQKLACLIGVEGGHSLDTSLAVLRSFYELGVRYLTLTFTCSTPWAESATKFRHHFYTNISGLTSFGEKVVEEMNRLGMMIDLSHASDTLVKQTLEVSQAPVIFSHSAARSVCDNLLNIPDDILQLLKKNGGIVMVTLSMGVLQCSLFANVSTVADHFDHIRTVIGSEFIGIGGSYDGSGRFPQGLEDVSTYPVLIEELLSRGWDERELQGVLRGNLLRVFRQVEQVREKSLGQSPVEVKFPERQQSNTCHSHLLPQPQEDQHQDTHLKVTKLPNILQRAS
The assay can be described thus: ELISA, coated antigen.

For assay [7], the target named is T1, rat DPEP3 ECD with histidine tag. Kind of assay: ELISA, coated antigen.
In assay [8] the target is T3, hDPEP2 ECD with histidine tag. Kind of assay: ELISA, coated antigen.
For assay [9], the target named is T6, human DPEP3 (hDPEP3) protein on the cell surface (human, UniProt Q9H4B8 36-463, GPI anchor at the C-terminus after removal of the final 25 amino acids).
T6 construct: The assay field says which
T6 sequence: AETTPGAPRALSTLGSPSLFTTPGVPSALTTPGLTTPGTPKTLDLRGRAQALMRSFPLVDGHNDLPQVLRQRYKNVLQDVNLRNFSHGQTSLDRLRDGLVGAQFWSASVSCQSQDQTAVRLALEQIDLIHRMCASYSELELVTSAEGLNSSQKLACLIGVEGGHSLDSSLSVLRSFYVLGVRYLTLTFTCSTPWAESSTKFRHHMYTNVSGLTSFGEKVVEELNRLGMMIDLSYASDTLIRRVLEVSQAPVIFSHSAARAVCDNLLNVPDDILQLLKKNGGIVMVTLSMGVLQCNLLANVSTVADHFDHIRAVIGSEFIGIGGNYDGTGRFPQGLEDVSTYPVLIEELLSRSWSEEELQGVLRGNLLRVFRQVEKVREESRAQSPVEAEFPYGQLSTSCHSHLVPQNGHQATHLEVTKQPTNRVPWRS
Kind of assay: flow cytometry, HEK-293T cells overexpressing hDPEP3. As to the method:
The isolated cells were incubated for 30 mins. with anti-DPEP3 antibodies and washed twice in PBS/2% FCS. The cells were incubated for 15 mins. with 50 μL per sample AlexaFluor-647 labeled goat-anti-mouse IgG, Fc fragment specific secondary antibody diluted 1:200 in PBS/2% FCS, washed twice with PBS/2% FCS and re-suspended in PBS/2% FCS with DAPI ([…]). The cells were analyzed on a BD FACS Canto II flow cytometer with anti-DPEP3 antibodies.

Assay [10] concerns the target T7, cDPEP3 (Macaca fascicularis, UniProt Q4R7M2).
T7 construct: extracellular domain; also called cynomolgus DPEP3-His; cynomolgus DPEP3 ECD with histidine tag
T7 sequence (single chain, looked up): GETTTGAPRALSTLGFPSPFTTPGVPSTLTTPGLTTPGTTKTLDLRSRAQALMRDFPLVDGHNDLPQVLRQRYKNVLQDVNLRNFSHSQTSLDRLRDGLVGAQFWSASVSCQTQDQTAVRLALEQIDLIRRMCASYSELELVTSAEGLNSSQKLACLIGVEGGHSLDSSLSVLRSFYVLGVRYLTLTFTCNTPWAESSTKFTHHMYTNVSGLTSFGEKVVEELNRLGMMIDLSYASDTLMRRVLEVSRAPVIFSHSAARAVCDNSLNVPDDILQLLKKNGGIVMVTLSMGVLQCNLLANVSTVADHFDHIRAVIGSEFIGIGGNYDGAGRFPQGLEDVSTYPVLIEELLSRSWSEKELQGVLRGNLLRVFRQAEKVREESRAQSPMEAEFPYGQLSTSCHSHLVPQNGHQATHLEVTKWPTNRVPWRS
Kind of assay: ELISA, coated antigen.

Values joined by “and” are separate entries in the source; they are usually repeats but may differ in a detail not shown here. Equal entries are not always repeated.

B1: hSC34.14 humanized anti-DPEP3 antibody (antibody, human IgG1, kappa, V domains shown)
VH: QVQLVQSGAEVKKPGASVKVSCKASGYTFTDYYMHWVRQAPGQRLEWMGRVNPKKGGTTYNQKFEGRVTITRDTSASTAYMELSSLRSEDTAVYYCAMGIYYSYDASFDYWGQGTTVTVSS
VL: DIQMTQSPSSLSASVGDRVTITCRTSEHIYSYLAWYQQKPGKAPKLLIYNAKTLAEGVPSRFSGSGSGTDFTLTISSLQPEDFATYYCQHHYDTPYTFGQGTKLEIKR
notes: Human IgG1/kappa
For B1, the binding result in assay [1] was “no binding”; in assay [2] it was “no binding”; in [3] it was “binds”.

B2: SC34.46 (antibody, mouse IgG1, V domains shown)
VH: QVQLQQSGTELARPGTSVKLSCKASGYTFRSYAISWVRQRTGQGLEWIGEIYPGSDKTYYNESLKGKVTLTTDKCSSTANMQLTSLTSEDSAVYFCARVHDYGSWFPYWGQGTLVTVSA
VL: DIVMSQSPSSLAVSVGEKVTMSCKSSQSLLYSKYQKNFLAWYQQKPGQSPKLLIYWASTRESGVPDRFTGSGSGTDFTLTISNVKAEDLAVYYCQQYYRYPLTFGAGTTLELK
With B2, in assay [4], the binding result is “binds”. Also, the equilibrium dissociation constant (Kd) in [5] is < 5 nM.

B3: SC34.36 (antibody, mouse IgG2a, V domains shown)
VH: QVQLQQPGSVLVRPGASVKLSCKASGYTFTSYWMHWVKQRPGQGLEWIGEISPTSGRPNYNAKFKGKATLTVDTSSSTAYVDLSSLTSEDSAVYYCAKGEGYYGKAFDYWGQGTTLTVSS
VL: DIQMTQTTSSLSASLGDRVTISCRASQDISNYLNWYQQKPDGTVKLLIYYTSRLHSGVPSRFSGSGSGTDYSLTISNLEQEDIATYFCQQGNTLPWTFGGGTKLEIK
With B3, the binding result in assay [6] was “no binding (tested: 1 ug/mL)”; in assay [7] it was “no binding (tested: 1 ug/mL)”; in assay [8] it was “no binding (tested: 1 ug/mL)”; in assay [9] it was “binds”.

B4: SC34.11 (antibody, mouse IgG2a, V domains shown)
VH: QVQLQQSGAELAKPGASVKMSCKASGYTFTNYWMIWVKQRPGQGLEWIGYIDPTTDYTAYNQKFKDKATVTADKSSSTAYMQLNSLTSEDSAVYYCARGGNVALDFWGQGTSVTVSS
VL: DIVMSQSPSSLAVSAGEKVTMSCKSSQSLLNSRTRKNYLAWYQQKPGQSPKLLIYWASTRESGVPDRFTGSGSGTDFTLTISSVQAEDLAVYYCKESYNLWTFGGGTKLEIK
Take B4: the binding result in assay [10] is given as “no binding (tested: 1 ug/mL)”; in [6] it was “no binding (tested: 1 ug/mL)”; in assay [7], “no binding (tested: 1 ug/mL)”; in assay [4], “binds”. Besides, the Kd in [5] is ≥ 5 nM and ≤ 10 nM.
